The chains are these.
T1: SNTB1, Q13884
T1 sequence (Q13884 107-205, limits assumed, looked up): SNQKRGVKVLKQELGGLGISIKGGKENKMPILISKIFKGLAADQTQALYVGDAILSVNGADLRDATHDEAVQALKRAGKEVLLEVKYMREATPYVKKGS

T2: APBA3_1, O96018
T2 sequence (O96018 389-490, limits assumed, looked up): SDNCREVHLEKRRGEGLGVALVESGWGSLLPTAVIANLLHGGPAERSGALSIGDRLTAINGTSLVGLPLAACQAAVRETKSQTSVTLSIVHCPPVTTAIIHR

T3: TJP3_3, O95049
T3 sequence (O95049 375-456, limits assumed, looked up): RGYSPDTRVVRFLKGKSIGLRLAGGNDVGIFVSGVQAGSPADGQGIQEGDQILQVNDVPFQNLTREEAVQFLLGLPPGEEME

T4: SHANK1, Q9Y566
T4 sequence (Q9Y566 658-767, limits assumed, looked up): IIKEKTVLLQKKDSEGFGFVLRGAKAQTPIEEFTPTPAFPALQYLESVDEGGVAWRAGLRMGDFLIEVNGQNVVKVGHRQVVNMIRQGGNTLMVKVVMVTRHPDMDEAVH

T5: MPDZ_5, O75970
T5 sequence (O75970 695-796, limits assumed, looked up): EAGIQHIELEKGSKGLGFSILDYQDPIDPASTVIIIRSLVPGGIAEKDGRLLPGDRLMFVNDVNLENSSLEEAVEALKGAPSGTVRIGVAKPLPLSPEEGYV

T6: APBA1_1, Q02410
T6 sequence (Q02410 651-752, limits assumed, looked up): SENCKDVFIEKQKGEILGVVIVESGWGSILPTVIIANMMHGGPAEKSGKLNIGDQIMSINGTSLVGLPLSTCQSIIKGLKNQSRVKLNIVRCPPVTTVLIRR

T7: APBA2_1, Q99767
T7 sequence (Q99767 563-664, limits assumed, looked up): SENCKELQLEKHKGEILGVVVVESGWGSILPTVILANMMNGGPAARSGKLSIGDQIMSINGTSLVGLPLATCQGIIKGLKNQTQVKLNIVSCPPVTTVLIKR

T8: NHERF3_1, Q5T2W1
T8 sequence (Q5T2W1 4-100, limits assumed, looked up): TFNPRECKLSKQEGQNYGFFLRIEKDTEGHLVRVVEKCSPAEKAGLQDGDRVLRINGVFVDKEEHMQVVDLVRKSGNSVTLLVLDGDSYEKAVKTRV

T9: GRIP1_5, Q9Y3R0
T9 sequence (Q9Y3R0 568-668, limits assumed, looked up): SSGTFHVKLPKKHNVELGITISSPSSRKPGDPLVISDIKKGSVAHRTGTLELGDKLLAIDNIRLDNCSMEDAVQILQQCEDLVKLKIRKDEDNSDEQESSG

T10: SNTG2, Q9NY99
T10 sequence (Q9NY99 68-166, limits assumed, looked up): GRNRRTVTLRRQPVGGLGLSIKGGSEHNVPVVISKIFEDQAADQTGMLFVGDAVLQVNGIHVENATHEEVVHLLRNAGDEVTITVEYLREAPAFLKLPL

T11: GRIP1_2, Q9Y3R0
T11 sequence (Q9Y3R0 145-248, limits assumed, looked up): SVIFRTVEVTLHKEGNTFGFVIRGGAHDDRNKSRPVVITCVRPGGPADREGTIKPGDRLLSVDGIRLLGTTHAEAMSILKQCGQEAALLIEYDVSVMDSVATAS

T12: SNTG1, Q9NSN8
T12 sequence (Q9NSN8 52-150, limits assumed, looked up): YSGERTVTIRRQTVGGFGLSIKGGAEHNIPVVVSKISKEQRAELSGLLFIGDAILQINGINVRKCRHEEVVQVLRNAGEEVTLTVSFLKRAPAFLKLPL

B1: CLDN19, Q8N6F1 (peptide)
chain: PASAKGPLGV
B2: SLC6A3, Q01959 (peptide)
chain: QFTLRHWLKV
B3: PPFIA1, Q13136 (peptide)
chain: DSATVRTYSC

Chain of DLG1_3, Q12959 (Q12959 457-571): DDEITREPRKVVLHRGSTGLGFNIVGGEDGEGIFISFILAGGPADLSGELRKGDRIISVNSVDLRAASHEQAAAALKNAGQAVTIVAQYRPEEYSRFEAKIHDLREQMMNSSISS
Chain of Inadl_9, Q8NI35 (Q8NI35 1530-1615): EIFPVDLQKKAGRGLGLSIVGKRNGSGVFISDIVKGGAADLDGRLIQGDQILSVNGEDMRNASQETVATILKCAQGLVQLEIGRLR

The target of the first assay is AHNAK1, Q09666. Description: holdup assay. Also noted: key: below the threshold = too weak to quantify, mostly under pKd 3.1 to 4. The conditions noted are these: plain residues with an end cap or a label only (N-terminal biotin on a linker: ado-ado).
Chain of AHNAK1, Q09666 (Q09666 4-100): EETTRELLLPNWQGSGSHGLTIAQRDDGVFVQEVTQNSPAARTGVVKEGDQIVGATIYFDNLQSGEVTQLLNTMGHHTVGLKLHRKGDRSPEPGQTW
By pKd is commonly meant the Kd on a negative log10 scale, so that one unit is a factor of ten. Consider B1, for which the pKd entry is listed as “below the threshold”.

For B2, the pKd result is “below the threshold”.

Regarding B3, the pKd entry is recorded as “below the threshold”.

In a further assay the target is GRIP2_7, Q9C0E4. Description: holdup assay. Also noted: key: below the threshold = too weak to quantify, mostly under pKd 3.1 to 4. The note with it: plain residues with an end cap or a label only (N-terminal biotin on a linker: ado-ado).
Chain of GRIP2_7, Q9C0E4 (Q9C0E4 934-1023): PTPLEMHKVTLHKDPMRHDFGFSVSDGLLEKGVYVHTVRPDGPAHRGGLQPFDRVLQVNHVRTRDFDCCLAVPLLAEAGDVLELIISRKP
For the molecule B1, the pKd result is “below the threshold”.

As for B2, the pKd result was “below the threshold”.

B3 registered a negative-log Kd (pKd) of 4.15.

In the next assay the target is Inadl_8, Q8NI35. The assay can be described thus: holdup assay. The note with it: plain residues with an end cap or a label only (N-terminal biotin on a linker: ado-ado). Also noted: key: below the threshold = too weak to quantify, mostly under pKd 3.1 to 4.
Chain of Inadl_8, Q8NI35 (Q8NI35 1425-1530): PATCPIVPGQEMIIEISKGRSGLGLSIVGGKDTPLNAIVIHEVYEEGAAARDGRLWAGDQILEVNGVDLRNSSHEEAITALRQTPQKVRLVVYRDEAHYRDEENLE
As for B1, the pKd entry is on record as “below the threshold”.

In the case of B2, the pKd result is “below the threshold”.

For the molecule B3, the pKd result is on record as “below the threshold”.

The next assay addresses T1, SNTB1, Q13884. The assay can be described thus: holdup assay. The conditions noted are these: plain residues with an end cap or a label only (N-terminal biotin on a linker: ado-ado). Also noted: key: below the threshold = too weak to quantify, mostly under pKd 3.1 to 4.
For the molecule B1, the pKd result is given as “below the threshold”.

In the case of B2, the pKd result is recorded as “below the threshold”.

On to B3, for which the pKd entry is listed as “below the threshold”.

The target in the next assay is T2, APBA3_1, O96018. The assay can be described thus: holdup assay. Also noted: key: below the threshold = too weak to quantify, mostly under pKd 3.1 to 4. The note with it: plain residues with an end cap or a label only (N-terminal biotin on a linker: ado-ado).
Take B1: the pKd result is on record as “below the threshold”.

Regarding B2, the pKd result is listed as “below the threshold”.

B3: the pKd result is recorded as “below the threshold”.

The target of another assay is T3, TJP3_3, O95049. Description: holdup assay. Also noted: key: below the threshold = too weak to quantify, mostly under pKd 3.1 to 4. The conditions noted are these: plain residues with an end cap or a label only (N-terminal biotin on a linker: ado-ado).
For B1, the pKd result is given as “below the threshold”.

Turning to B2, the pKd result is “below the threshold”.

As to B3, the pKd entry was “below the threshold”.

The target in another assay is T4, SHANK1, Q9Y566. The assay can be described thus: holdup assay. Also noted: key: below the threshold = too weak to quantify, mostly under pKd 3.1 to 4. The note with it: plain residues with an end cap or a label only (N-terminal biotin on a linker: ado-ado).
Turning to B1, the pKd result was “below the threshold”.

For the molecule B2, the pKd entry is recorded as “below the threshold”.

Regarding B3, the pKd entry is “below the threshold”.

Another assay has as its target T5, MPDZ_5, O75970. Description: holdup assay. Also noted: key: below the threshold = too weak to quantify, mostly under pKd 3.1 to 4. The conditions noted are these: plain residues with an end cap or a label only (N-terminal biotin on a linker: ado-ado).
For B1, the pKd entry was “below the threshold”.

Turning to B2, the pKd entry is reported as “below the threshold”.

In the case of B3, the pKd entry is on record as “below the threshold”.

For the next assay, the target named is GORASP1, Q9BQQ3. Description: holdup assay. Also noted: key: below the threshold = too weak to quantify, mostly under pKd 3.1 to 4. The note with it: plain residues with an end cap or a label only (N-terminal biotin on a linker: ado-ado).
Chain of GORASP1, Q9BQQ3 (Q9BQQ3 1-208): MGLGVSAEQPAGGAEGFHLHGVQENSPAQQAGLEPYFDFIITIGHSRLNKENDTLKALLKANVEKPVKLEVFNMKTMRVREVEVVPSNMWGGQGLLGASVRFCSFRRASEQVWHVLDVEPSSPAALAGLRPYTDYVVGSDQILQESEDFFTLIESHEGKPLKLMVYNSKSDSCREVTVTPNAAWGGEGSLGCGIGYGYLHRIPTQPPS
With B1, the pKd result is given as “below the threshold”.

The molecule B2 yielded a pKd of 4.13.

For B3, the pKd result was “below the threshold”.

For another assay, the target named is MAGI1_1, Q96QZ7. The assay can be described thus: holdup assay. The conditions noted are these: plain residues with an end cap or a label only (N-terminal biotin on a linker: ado-ado). Also noted: key: below the threshold = too weak to quantify, mostly under pKd 3.1 to 4.
Chain of MAGI1_1, Q96QZ7 (Q96QZ7 1-106): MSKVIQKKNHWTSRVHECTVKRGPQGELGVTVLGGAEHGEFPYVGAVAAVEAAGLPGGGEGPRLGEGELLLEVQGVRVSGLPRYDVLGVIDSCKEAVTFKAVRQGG
Consider B1, for which the pKd entry is given as “below the threshold”.

Consider B2, for which the pKd result is given as “below the threshold”.

Consider B3, for which the pKd result is recorded as “below the threshold”.

A further assay concerns the target DLG1_3, Q12959. The assay can be described thus: holdup assay. The note with it: plain residues with an end cap or a label only (N-terminal biotin on a linker: ado-ado). Also noted: key: below the threshold = too weak to quantify, mostly under pKd 3.1 to 4.
With B1, the pKd entry is on record as “below the threshold”.

Regarding B2, the pKd result is given as “below the threshold”.

Consider B3, for which the pKd result is on record as “below the threshold”.

The target of the next assay is T6, APBA1_1, Q02410. The assay can be described thus: holdup assay. Also noted: key: below the threshold = too weak to quantify, mostly under pKd 3.1 to 4. The conditions noted are these: plain residues with an end cap or a label only (N-terminal biotin on a linker: ado-ado).
Consider B1, for which the pKd entry is recorded as “below the threshold”.

Take B2: the pKd entry is “below the threshold”.

Turning to B3, the pKd result is “below the threshold”.

In a further assay the target is T7, APBA2_1, Q99767. The assay can be described thus: holdup assay. The conditions noted are these: plain residues with an end cap or a label only (N-terminal biotin on a linker: ado-ado). Also noted: key: below the threshold = too weak to quantify, mostly under pKd 3.1 to 4.
For B1, the pKd entry is “below the threshold”.

In turn, B2 yielded a pKd of 3.48.

Regarding B3, the negative logarithm of the Kd (pKd) entry was “below the threshold”.

In the next assay the target is GOPC, Q9HD26. The assay can be described thus: holdup assay. Also noted: key: below the threshold = too weak to quantify, mostly under pKd 3.1 to 4. The note with it: plain residues with an end cap or a label only (N-terminal biotin on a linker: ado-ado).
On to B1, for which the pKd entry is recorded as “below the threshold”.

The molecule B2 returned a pKd of 3.51.

Consider B3, for which the pKd result is listed as “below the threshold”.

The next assay addresses DLG2_3, Q15700. Description: holdup assay. Also noted: key: below the threshold = too weak to quantify, mostly under pKd 3.1 to 4. The conditions noted are these: plain residues with an end cap or a label only (N-terminal biotin on a linker: ado-ado).
For B1, the pKd result is “below the threshold”.

Consider B2, for which the pKd result was “below the threshold”.

B3 showed a pKd of 3.73.

The target of the next assay is GRIP2_6, Q9C0E4. The assay can be described thus: holdup assay. Also noted: key: below the threshold = too weak to quantify, mostly under pKd 3.1 to 4. The conditions noted are these: plain residues with an end cap or a label only (N-terminal biotin on a linker: ado-ado).
Chain of GRIP2_6, Q9C0E4 (Q9C0E4 648-740): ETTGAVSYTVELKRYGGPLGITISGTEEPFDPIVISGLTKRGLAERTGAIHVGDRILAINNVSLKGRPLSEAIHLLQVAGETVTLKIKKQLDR
In the case of B1, the pKd entry is listed as “below the threshold”.

In turn, B2 returned a pKd of 3.9.

With B3, the pKd came out at 5.71.

In the next assay the target is GRID2IP_2, A4D2P6. The assay can be described thus: holdup assay. Also noted: key: below the threshold = too weak to quantify, mostly under pKd 3.1 to 4. The conditions noted are these: plain residues with an end cap or a label only (N-terminal biotin on a linker: ado-ado).
Chain of GRID2IP_2, A4D2P6 (A4D2P6 272-370): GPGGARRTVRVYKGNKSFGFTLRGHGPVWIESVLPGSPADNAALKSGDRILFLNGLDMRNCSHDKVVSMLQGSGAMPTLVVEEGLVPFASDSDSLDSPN
For B1, the pKd result is given as “below the threshold”.

For the molecule B2, the pKd entry is recorded as “below the threshold”.

In turn, B3 gave a pKd of 3.49.

A further assay concerns the target Inadl_9, Q8NI35. The assay can be described thus: holdup assay. Also noted: key: below the threshold = too weak to quantify, mostly under pKd 3.1 to 4. The note with it: plain residues with an end cap or a label only (N-terminal biotin on a linker: ado-ado).
With B1, the pKd result is given as “below the threshold”.

Take B2: the pKd entry is reported as “below the threshold”.

As to B3, the pKd result is recorded as “below the threshold”.

The target in another assay is T8, NHERF3_1, Q5T2W1. Description: holdup assay. Also noted: key: below the threshold = too weak to quantify, mostly under pKd 3.1 to 4. The conditions noted are these: plain residues with an end cap or a label only (N-terminal biotin on a linker: ado-ado).
Regarding B1, the pKd entry is reported as “below the threshold”.

For B2, the pKd amounted to 3.77.

The molecule B3 had a pKd of 3.77.

For another assay, the target named is T9, GRIP1_5, Q9Y3R0. The assay can be described thus: holdup assay. Also noted: key: below the threshold = too weak to quantify, mostly under pKd 3.1 to 4. The note with it: plain residues with an end cap or a label only (N-terminal biotin on a linker: ado-ado).
Take B1: the pKd result is recorded as “below the threshold”.

In the case of B2, the pKd result was “below the threshold”.

Consider B3, for which the pKd entry was “below the threshold”.

The next assay concerns the target T10, SNTG2, Q9NY99. Description: holdup assay. The note with it: plain residues with an end cap or a label only (N-terminal biotin on a linker: ado-ado). Also noted: key: below the threshold = too weak to quantify, mostly under pKd 3.1 to 4.
For the molecule B1, the pKd result is recorded as “below the threshold”.

As for B2, the pKd result is “below the threshold”.

Consider B3, for which the pKd result is given as “below the threshold”.

Another assay has as its target T11, GRIP1_2, Q9Y3R0. The assay can be described thus: holdup assay. Also noted: key: below the threshold = too weak to quantify, mostly under pKd 3.1 to 4. The conditions noted are these: plain residues with an end cap or a label only (N-terminal biotin on a linker: ado-ado).
Take B1: the pKd entry was “below the threshold”.

Take B2: the pKd entry was “below the threshold”.

Take B3: the pKd result was “below the threshold”.

The next assay deals with T12, SNTG1, Q9NSN8. Description: holdup assay. Also noted: key: below the threshold = too weak to quantify, mostly under pKd 3.1 to 4. The conditions noted are these: plain residues with an end cap or a label only (N-terminal biotin on a linker: ado-ado).
In the case of B1, the pKd entry is listed as “below the threshold”.

With B2, the negative logarithm of the Kd (pKd) entry is reported as “below the threshold”.

B3: the pKd result is “below the threshold”.

For a further assay, the target named is PARD3_3, Q8TEW0. Description: holdup assay. Also noted: key: below the threshold = too weak to quantify, mostly under pKd 3.1 to 4. The note with it: plain residues with an end cap or a label only (N-terminal biotin on a linker: ado-ado).
Chain of PARD3_3, Q8TEW0 (Q8TEW0 582-685): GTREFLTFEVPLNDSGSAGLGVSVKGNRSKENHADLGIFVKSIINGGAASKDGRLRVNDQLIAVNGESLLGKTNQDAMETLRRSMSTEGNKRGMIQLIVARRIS
As for B1, the pKd entry is “below the threshold”.

For the molecule B2, the pKd result is “below the threshold”.

Consider B3, for which the pKd entry was “below the threshold”.
